Results as given in article PMC11217399, “Amyloid formation and depolymerization of tumor suppressor p16^INK4a are regulated by a thiol-dependent redox mechanism” (Nature Communications, 2024).
Where a chain is given by its changes, count along the chain named. Names may count otherwise.

Key:
[1] = molecular target: endogenous p16 of Ishikawa cells (human (endogenous in Ishikawa cells)) (UniProt P42771); assay: cross-linking; lysates of cancer cell lines without added oxidant, SDS lysis buffer, non-reducing SDS-PAGE and western blot for p16
[2] = molecular target: wild-type 6xHis-tagged p16 expressed in HEK293 cells (human) (UniProt P42771); assay: cross-linking; HEK293 cells transiently expressing p16-His variants, 200 µM H2O2 in media for the times indicated, stopped with 10 µg/mL catalase and 50 mM NEM; non-reducing SDS-PAGE and western blot for p16
[3] = molecular target: the molecule itself; assay: cross-linking; intermolecular disulfide formed by oxidant (20 µM p16, 200 µM diamide, or H2O2 with or without 25 mM bicarbonate), 4 mM HEPES pH 7.4, room temperature; free cysteines blocked with 10 mM NEM; non-reducing SDS-PAGE
[4] = molecular target: the molecule itself; assay: Thioflavin-T fluorescence (amyloid formation); 20 µM p16 (series 5-60 µM), 10 µM ThT, oxidant (200 µM diamide, or H2O2 with or without bicarbonate) added at the start, 4 mM HEPES pH 7.4, 25 °C, quiescent

endogenous p16 of Ishikawa cells (from UniProt P42771 1-156) (natural protein)
stoichiometry N [1]: 2

wild-type 6xHis-tagged p16 expressed in HEK293 cells (from UniProt P42771 1-156) (natural protein)
stoichiometry N [2]: 2

B1: p16^INK4a, wild type (recombinant) (natural protein, human)
chain: GAMEPAAGSSMEPSADWLATAAARGRVEEVRALLEAGALPNAPNSYGRRPIQVMMMGSARVAELLLLHGAEPNCADPATLTRPVHDAAREGFLDTLVVLHRAGARLDVRDAWGRLPVDLAEELGHRDVARYLRAAAGGTRGSNHARIDAAEGPSDIPD
notes: p16INK4a, UniProt P42771; Self-association needs oxidation of Cys72 (diamide or H2O2): intermolecular disulfide dimer, then oligomers and amyloid fibrils; Constructs obtained from Genscript; also called wild-type p16; monomeric p16; source: E. coli BL21(DE3), purified (Ni-NTA, SEC, TEV cleavage, second Ni-NTA, desalting); not shown: His6, N-terminal, cleaved; protein A tag, N-terminal, cleaved
stoichiometry N [3]: 2

B2: p16^INK4a L37S (recombinant, stabilizing mutation) (natural protein, human)
chain: B1 chain with L39S
notes: p16INK4a, UniProt P42771; source: E. coli BL21(DE3), purified (Ni-NTA, SEC, TEV cleavage, second Ni-NTA, desalting); not shown: His6, N-terminal, cleaved; protein A tag, N-terminal, cleaved
binding result [4]: binds

B3: p16^INK4a V95A (recombinant) (natural protein, human)
chain: B1 chain with V97A
notes: p16INK4a, UniProt P42771; previously reported cancer mutation; source: E. coli BL21(DE3), purified (Ni-NTA, SEC, TEV cleavage, second Ni-NTA, desalting); not shown: His6, N-terminal, cleaved; protein A tag, N-terminal, cleaved
binding result [4]: binds

B4: p16^INK4a G122S (recombinant) (natural protein, human)
chain: B1 chain with G124S
notes: as for B3
binding result [4]: binds

B5: p16^INK4a A127S (recombinant) (natural protein, human)
chain: B1 chain with A129S
notes: as for B3
binding result [4]: binds

B6: p16^INK4a A20S (recombinant) (natural protein, human)
chain: B1 chain with A22S
notes: as for B3
binding result [4]: binds

B7: p16^INK4a D84N (recombinant) (natural protein, human)
chain: B1 chain with D86N
notes: as for B3
binding result [4]: binds
